For four molecules, Km and kcat results are on record in article PMC11430614, “Bacterial Purine Nucleoside Phosphorylases from Mesophilic and Thermophilic Sources: Characterization of Their Interaction with Natural Nucleosides and Modified Arabinofuranoside Analogues” (Biomolecules, 2024).

As usually defined, the Km is the concentration of substrate that gives half-maximal velocity. In general, kcat refers to the number of substrate molecules converted per active site and unit of time at saturation.

Data set [1] concerns T1, EntPNP (PNP from Enterobacter).
T1 construct: commercial preparation (Sigma-Aldrich); acts on 6-oxopurine nucleosides only
Briefly: HPLC phosphorolysis assay, Michaelis-Menten fit. Format: biochemical, Enterobacter sp. To be noted: 50 mM KH2PO4, pH 7.5, 25 °C, tested up to 4 mM, no plateau. From the text: HPLC phosphorolysis assay, Michaelis-Menten fit on EntPNP (PNP from Enterobacter)

Data set [2] has the same test system. Briefly: coupled xanthine oxidase assay, […] nm, Michaelis-Menten fit. The format is biochemical, Enterobacter sp. To be noted: 50 mM KH2PO4, pH 7.5, 25 °C; phosphorolysis.
Data set [3] has as its system Nc1ncnc2c1ncn2[C@@H]1O[C@H](CO)[C@@H](O)[C@H]1O. Briefly: purified protein. To be noted: 50 mM KH2PO4, pH 7.5, 25 °C, phosphorolysis.
Substrate in data set [4]: O=c1[nH]cnc2c1ncn2[C@@H]1O[C@H](CO)[C@@H](O)[C@@H]1O
Briefly: HPLC phosphorolysis assay, Michaelis-Menten fit. Format: biochemical, Escherichia coli. To be noted: 50 mM KH2PO4, pH 7.5, 25 °C, tested up to 4 mM, no plateau. From the text:
HPLC phosphorolysis assay, Michaelis-Menten fit on EcPNP

Substrate in data set [5]: OC[C@H]1O[C@@H](n2cnc3c(O)ncnc32)[C@H](O)[C@@H]1O
Briefly: purified protein. Format: biochemical, Escherichia coli. To be noted: 50 mM KH2PO4, pH 7.5, 25 °C, phosphorolysis.

Consider `O=c1[nH]cnc2c1ncn2[C@@H]1O[C@H](CO)[C@@H](O)[C@@H]1O` [9-(β-D-arabinofuranosyl)hypoxanthine], for which, in data set [1], the Km came out at 2900 ± 831 µM.

As for `O=c1[nH]cnc2c1ncn2[C@@H]1O[C@H](CO)[C@@H](O)[C@H]1O` [inosine], the Km in data set [2] came out at 107 ± 21 µM.

As to EcPNP (Escherichia coli K-12), in data set [3], the Km worked out at 21 ± 5 µM and the kcat was found to be 137.7 s⁻¹.

B1: EcPNP (Escherichia coli K-12) (protein)
chain: ATPHINAEMGDFADVVLMPGDPLRAKYIAETFLEDAREVNNVRGMLGFTGTYKGRKISVMGHGMGIPSCSIYTKELITDFGVKKIIRVGSCGAVLPHVKLRDVVIGMGACTDSKVNRIRFKDHDFAAIADFDMVRNAVDAAKALGIDARVGNLFSADLFYSPDGEMFDVMEKYGILGVEMEAAGIYGVAAEFGAKALTICTVSDHIRTHEQTTAAERQTTFNDMIKIALESVLLGDKE
notes: recombinant from plasmid pER-EcPNP, host E. coli ER2566
Regarding B1, in data set [4], the Km is 1810 ± 371 µM and the kcat came to 0.709 s⁻¹. In addition, in data set [5], the Km stood at 76 ± 21 µM and the kcat is 29.2 s⁻¹.
